According to patent US20150018665:

How the values were obtained:
[1] = system: TEV protease sensor, StrepII-GFP-(linker)-(protease site)-CGRP-Gly fusion with GGSG linker and ENLYFQG protease site, uncleaved
[2] = system: Caspase-3 sensor, StrepII-GFP-(linker)-(protease site)-CGRP-Gly fusion with GGSG linker and DEVD protease site, uncleaved
[3] = system: Enterokinase sensor, StrepII-GFP-(linker)-(protease site)-CGRP-Gly fusion with GGSG linker and DDDDK protease site, uncleaved

## Tobacco Etch Virus (TEV) protease
[1]
  proteolytic cleavage of the sensor, read by CGRP receptor activation: after being cleaved by their respective protease

## caspase-3
[2]
  proteolytic cleavage of the sensor (MALDI spectrum): MALDI spectrum showing cleavage of caspase sensor
  proteolytic cleavage of the sensor, read by CGRP receptor activation: after being cleaved by their respective protease

## enterokinase
[3]
  proteolytic cleavage of the sensor, read by CGRP receptor activation: after being cleaved by their respective protease
